Series [1] has as its target T1, AK155 receptor complex (α-subunit CPNM1 / IL-20Rα and β-subunit IL-10Rβ), endogenous on cell lines (UniProt Q9UHF4 30-553; Q08334 20-325, limits assumed).
T1 sequence (looked up) 1: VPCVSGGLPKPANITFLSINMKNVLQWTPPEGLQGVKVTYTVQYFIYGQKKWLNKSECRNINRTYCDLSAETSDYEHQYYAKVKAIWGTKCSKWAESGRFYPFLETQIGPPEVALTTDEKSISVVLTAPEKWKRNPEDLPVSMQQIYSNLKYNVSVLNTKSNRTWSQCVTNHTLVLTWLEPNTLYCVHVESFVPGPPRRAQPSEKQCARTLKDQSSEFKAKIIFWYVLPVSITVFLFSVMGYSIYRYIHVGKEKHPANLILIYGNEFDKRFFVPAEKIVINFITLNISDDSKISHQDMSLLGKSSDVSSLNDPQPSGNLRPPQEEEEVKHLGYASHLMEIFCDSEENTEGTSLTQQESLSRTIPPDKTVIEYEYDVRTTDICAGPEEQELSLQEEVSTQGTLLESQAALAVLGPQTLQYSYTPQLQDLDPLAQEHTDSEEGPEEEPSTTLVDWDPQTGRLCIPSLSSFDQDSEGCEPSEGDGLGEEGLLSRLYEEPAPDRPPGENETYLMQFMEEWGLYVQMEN
T1 sequence (looked up) 2: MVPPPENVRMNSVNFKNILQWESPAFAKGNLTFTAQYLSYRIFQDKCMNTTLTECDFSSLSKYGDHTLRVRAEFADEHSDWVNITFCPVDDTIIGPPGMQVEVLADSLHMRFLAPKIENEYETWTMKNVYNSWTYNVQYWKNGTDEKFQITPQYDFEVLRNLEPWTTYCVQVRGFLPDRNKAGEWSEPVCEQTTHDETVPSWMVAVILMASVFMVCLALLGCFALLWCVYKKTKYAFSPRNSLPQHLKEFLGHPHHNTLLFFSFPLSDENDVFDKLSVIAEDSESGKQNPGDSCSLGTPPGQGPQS
In words: cell-based or functional assay.

Series [2] concerns the molecule itself. The experiment in a line: SDS-PAGE and western blot of COS-7 cell extracts with and without denaturation (about 36 kDa against about 19 kDa). From the text:
Further evidence for the dimeric state of AK155 was provided by analysis of AK155 extracted from mammalian cells. AK155 was cloned and expressed using the eukaryotic expression vector pME18S in COS-7 cells, where the protein was cloned with a FLAG sequence. The cells were extracted and the extracted protein was loaded as is, or heated with reductant, prior to loading on the electrophoresis gel. AK155 was not purified prior to analysis by SDS PAGE. Detection was by rabbit antiserum prepared against AK155 or by anti-FLAG monoclonal antibody.

B1: AK155 (preparation not stated) (ligand)
chain: KHKQSSFTKSCYPRGTLSQAVDALYIKAAWLKATIPEDRIKNIRLLKKKTKKQFMKNCQFQEQLLSFFMEDVFGQLQLQGCKKIRFVEDFHSLRQKLSHCISCASSAREMKSITRMKRIFYRIGNKGIYKAISELDILLSWIKKLLESSQ
In the case of B1, the “fold increase of IL-8 concentration, HaCaT cells, with against without AK155” value in series [1] was 5 fold.

B2: AK155 cloned with a FLAG sequence, expressed in COS-7 cells from pME18S (ligand, not shown: small tags and cut ends)
chain: B1 chain
notes: Analysed unpurified in COS-7 cell extracts; also called FLAG-tagged AK155
Take B2: in series [2], the binding result is listed as “binds”.

Source of the values: patent US20030073199A1 (SCHERING, published 2003).
